Square brackets hold non-standard residues; d marks the D form. Ends that are not written are not given here. Aib = CC(C)(N)C(=O)O
Legend:
[1] = target: human GLP-1 receptor (hGLP1R) (human, UniProt P43220 24-463); test: cell-based or functional assay
[2] = target: human secretin receptor (hSCTR) (human, UniProt P47872 23-440); test: cell-based or functional assay
Chain of human secretin receptor (hSCTR) (P47872 23-440): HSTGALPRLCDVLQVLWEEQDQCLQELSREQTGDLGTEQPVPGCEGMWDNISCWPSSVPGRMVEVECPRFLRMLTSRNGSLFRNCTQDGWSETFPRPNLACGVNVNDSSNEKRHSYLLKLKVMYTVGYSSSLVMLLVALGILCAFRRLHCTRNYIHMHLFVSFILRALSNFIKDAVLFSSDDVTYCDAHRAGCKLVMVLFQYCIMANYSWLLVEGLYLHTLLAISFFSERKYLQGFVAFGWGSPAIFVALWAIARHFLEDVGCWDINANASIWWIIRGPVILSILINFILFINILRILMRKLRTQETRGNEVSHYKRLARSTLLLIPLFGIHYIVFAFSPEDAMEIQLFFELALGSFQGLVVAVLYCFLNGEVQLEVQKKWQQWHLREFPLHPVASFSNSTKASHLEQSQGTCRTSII

H[Aib]EGTFTSDVSVLKE[Aib]AAAQRFLEHLV-NH2 (not fully specified (residue 14)) [SEQ ID NO: 15]
pEC50 hGLPR1 [1]: 10.1 -log M | pEC50 hSCTR [2]: 6.5 -log M

H[Aib]EGTFTSDVSYLWEEA[Aib]LQRFLEKLV-NH2 (not fully specified (residue 25)) [SEQ ID NO: 130]
pEC50 hGLPR1 [1]: 10.5 -log M | pEC50 hSCTR [2]: 6 -log M

H[Aib]EGTFTSDVSYLKEEA[Aib]SQRFLEHLV-NH2 (not fully specified (residue 14)) [SEQ ID NO: 134]
pEC50 hGLPR1 [1]: 11.1 -log M | pEC50 hSCTR [2]: 5.6 -log M

H[Aib]EGTFTSDVSALKEEA[Aib]LQRFLEHLV-NH2 (not fully specified (residue 14)) [SEQ ID NO: 148]
pEC50 hGLPR1 [1]: 10.8 -log M | pEC50 hSCTR [2]: 7.2 -log M

B1: SEQ ID NO: 14 (peptide)
peptide: H[Aib]EGTFTSDVSELKEEAAQQRFLEHLV-NH2
modifications: not fully specified (residue 14); also: K14 lipidated with C20DA[γE][OEG][OEG]- or C18DA[γE][OEG][OEG]-
pEC50 hGLPR1 [1]: 10.7 -log M | pEC50 hSCTR [2]: 6.7 -log M

H[Aib]EGTFTSDVSYLYEEA[Aib]LQRFLEKLV-NH2 (not fully specified (residue 25)) [SEQ ID NO: 143]
pEC50 hGLPR1 [1]: 11 -log M | pEC50 hSCTR [2]: 6.1 -log M

H[Aib]EGTFTSDVSYLKEEAALQRFLEHLV-NH2 (not fully specified (residue 14)) [SEQ ID NO: 137]
pEC50 hGLPR1 [1]: 11.1 -log M | pEC50 hSCTR [2]: 7.1 -log M

H[Aib]EGTFTSDVSVLKEEA[Aib]LQRFLEHLV-NH2 (not fully specified (residue 14)) [SEQ ID NO: 138]
pEC50 hGLPR1 [1]: 10.9 -log M | pEC50 hSCTR [2]: 7.5 -log M

H[Aib]EGTFTSDVSYLKEEA[Aib]AQRFLEHLV-NH2 (not fully specified (residue 14)) [SEQ ID NO: 146]
pEC50 hGLPR1 [1]: 11.6 -log M | pEC50 hSCTR [2]: 5.7 -log M

H[Aib]EGTFTSDVSYLKEEA[Aib]LQRFLEKLV-NH2 (not fully specified (residue 14)) [SEQ ID NO: 147]
pEC50 hGLPR1 [1]: 11.3 -log M | pEC50 hSCTR [2]: 7.2 -log M

H[Aib]EGTFTSDVSYLKEEA[Aib]LQRFLEFLV-NH2 (not fully specified (residue 14)) [SEQ ID NO: 133]
pEC50 hGLPR1 [1]: 10.8 -log M | pEC50 hSCTR [2]: 6.4 -log M

B2: SEQ ID NO: 141 (peptide)
peptide: H[Aib]EGTFTSDVSYLKEEA[Aib]LQRYLEHLV-NH2
modifications: not fully specified (residue 14); also: K14 lipidated with C20DA[γE][OEG][OEG]- or C18DA[γE][OEG][OEG]-
pEC50 hGLPR1 [1]: 11.4 -log M | pEC50 hSCTR [2]: 6.6 -log M

B3: SEQ ID NO: 128 (peptide)
peptide: H[Aib]EGTFTSDPSYLLEGAALQRFIQWLV-NH2
modifications: N-terminus assumed
SMILES: CC[C@H](C)[C@H](NC(=O)[C@H](Cc1ccccc1)NC(=O)[C@H](CCCNC(=N)N)NC(=O)[C@H](CCC(N)=O)NC(=O)[C@H](CC(C)C)NC(=O)[C@H](C)NC(=O)[C@H](C)NC(=O)CNC(=O)[C@H](CCC(=O)O)NC(=O)[C@H](CC(C)C)NC(=O)[C@H](CC(C)C)NC(=O)[C@H](Cc1ccc(O)cc1)NC(=O)[C@H](CO)NC(=O)[C@@H]1CCCN1C(=O)[C@H](CC(=O)O)NC(=O)[C@H](CO)NC(=O)[C@@H](NC(=O)[C@H](Cc1ccccc1)NC(=O)[C@@H](NC(=O)CNC(=O)[C@H](CCC(=O)O)NC(=O)C(C)(C)NC(=O)[C@@H](N)Cc1c[nH]cn1)[C@@H](C)O)[C@@H](C)O)C(=O)N[C@@H](CCC(N)=O)C(=O)N[C@@H](Cc1c[nH]c2ccccc12)C(=O)N[C@@H](CC(C)C)C(=O)N[C@H](C(N)=O)C(C)C
pEC50 hGLPR1 [1]: 7.8 -log M | pEC50 hSCTR [2]: 4.7 -log M

H[Aib]EGTFTSDVSYLKEEA[Aib]LQRWLEHLV-NH2 (not fully specified (residue 14)) [SEQ ID NO: 135]
pEC50 hGLPR1 [1]: 11.3 -log M | pEC50 hSCTR [2]: 6.9 -log M

H[Aib]EGTFTSDVSYLKEEA[Aib]IQRFLEHLV-NH2 (not fully specified (residue 14)) [SEQ ID NO: 139]
pEC50 hGLPR1 [1]: 11.2 -log M | pEC50 hSCTR [2]: 6.9 -log M

B4: SEQ ID NO: 129 (peptide)
peptide: H[Aib]EGTFTSDPSVLLEGAALQRFIQWLV-NH2
modifications: N-terminus assumed
SMILES: CC[C@H](C)[C@H](NC(=O)[C@H](Cc1ccccc1)NC(=O)[C@H](CCCNC(=N)N)NC(=O)[C@H](CCC(N)=O)NC(=O)[C@H](CC(C)C)NC(=O)[C@H](C)NC(=O)[C@H](C)NC(=O)CNC(=O)[C@H](CCC(=O)O)NC(=O)[C@H](CC(C)C)NC(=O)[C@H](CC(C)C)NC(=O)[C@@H](NC(=O)[C@H](CO)NC(=O)[C@@H]1CCCN1C(=O)[C@H](CC(=O)O)NC(=O)[C@H](CO)NC(=O)[C@@H](NC(=O)[C@H](Cc1ccccc1)NC(=O)[C@@H](NC(=O)CNC(=O)[C@H](CCC(=O)O)NC(=O)C(C)(C)NC(=O)[C@@H](N)Cc1c[nH]cn1)[C@@H](C)O)[C@@H](C)O)C(C)C)C(=O)N[C@@H](CCC(N)=O)C(=O)N[C@@H](Cc1c[nH]c2ccccc12)C(=O)N[C@@H](CC(C)C)C(=O)N[C@H](C(N)=O)C(C)C
pEC50 hGLPR1 [1]: 8.1 -log M | pEC50 hSCTR [2]: 5 -log M

B5: SEQ ID NO: 140 (peptide)
peptide: H[Aib]EGTFTSDVSPLKEEA[Aib]LQRFLEHLV-NH2
modifications: not fully specified (residue 14); also: K14 lipidated with C20DA[γE][OEG][OEG]- or C18DA[γE][OEG][OEG]-
pEC50 hGLPR1 [1]: 8.9 -log M | pEC50 hSCTR [2]: 4.7 -log M

H[Aib]EGTFTSDVSYLKEEA[Aib]NQRFLEHLV-NH2 (not fully specified (residue 14)) [SEQ ID NO: 131]
pEC50 hGLPR1 [1]: 11.3 -log M | pEC50 hSCTR [2]: 5.3 -log M

B6: SEQ ID NO: 126 (peptide)
peptide: H[Aib]EGTFTSDPSFLLEGAALQRFIQWLV-NH2
modifications: N-terminus assumed
SMILES: CC[C@H](C)[C@H](NC(=O)[C@H](Cc1ccccc1)NC(=O)[C@H](CCCNC(=N)N)NC(=O)[C@H](CCC(N)=O)NC(=O)[C@H](CC(C)C)NC(=O)[C@H](C)NC(=O)[C@H](C)NC(=O)CNC(=O)[C@H](CCC(=O)O)NC(=O)[C@H](CC(C)C)NC(=O)[C@H](CC(C)C)NC(=O)[C@H](Cc1ccccc1)NC(=O)[C@H](CO)NC(=O)[C@@H]1CCCN1C(=O)[C@H](CC(=O)O)NC(=O)[C@H](CO)NC(=O)[C@@H](NC(=O)[C@H](Cc1ccccc1)NC(=O)[C@@H](NC(=O)CNC(=O)[C@H](CCC(=O)O)NC(=O)C(C)(C)NC(=O)[C@@H](N)Cc1c[nH]cn1)[C@@H](C)O)[C@@H](C)O)C(=O)N[C@@H](CCC(N)=O)C(=O)N[C@@H](Cc1c[nH]c2ccccc12)C(=O)N[C@@H](CC(C)C)C(=O)N[C@H](C(N)=O)C(C)C
pEC50 hGLPR1 [1]: 8.1 -log M | pEC50 hSCTR [2]: 5.7 -log M

B7: SEQ ID NO: 127 (peptide)
peptide: H[Aib]EGTFTSDPSWLLEGAALQRFIQWLV-NH2
modifications: N-terminus assumed
SMILES: CC[C@H](C)[C@H](NC(=O)[C@H](Cc1ccccc1)NC(=O)[C@H](CCCNC(=N)N)NC(=O)[C@H](CCC(N)=O)NC(=O)[C@H](CC(C)C)NC(=O)[C@H](C)NC(=O)[C@H](C)NC(=O)CNC(=O)[C@H](CCC(=O)O)NC(=O)[C@H](CC(C)C)NC(=O)[C@H](CC(C)C)NC(=O)[C@H](Cc1c[nH]c2ccccc12)NC(=O)[C@H](CO)NC(=O)[C@@H]1CCCN1C(=O)[C@H](CC(=O)O)NC(=O)[C@H](CO)NC(=O)[C@@H](NC(=O)[C@H](Cc1ccccc1)NC(=O)[C@@H](NC(=O)CNC(=O)[C@H](CCC(=O)O)NC(=O)C(C)(C)NC(=O)[C@@H](N)Cc1c[nH]cn1)[C@@H](C)O)[C@@H](C)O)C(=O)N[C@@H](CCC(N)=O)C(=O)N[C@@H](Cc1c[nH]c2ccccc12)C(=O)N[C@@H](CC(C)C)C(=O)N[C@H](C(N)=O)C(C)C
pEC50 hGLPR1 [1]: 8.1 -log M | pEC50 hSCTR [2]: 5.4 -log M

H[Aib]EGTFTSDVSYLKEEALLQRFLEHLV-NH2 (not fully specified (residue 14)) [SEQ ID NO: 132]
pEC50 hGLPR1 [1]: 10.7 -log M | pEC50 hSCTR [2]: 6.7 -log M

B8: SEQ ID NO: 145 (peptide)
peptide: H[Aib]EGTFTSDVSHLKEEA[Aib]LQRFLEHLV-NH2
modifications: not fully specified (residue 14); also: K14 lipidated with C20DA[γE][OEG][OEG]- or C18DA[γE][OEG][OEG]-
pEC50 hGLPR1 [1]: 11.1 -log M | pEC50 hSCTR [2]: 7.2 -log M

H[Aib]EGTFTSDVSNLKEEA[Aib]LQRFLEHLV-NH2 (not fully specified (residue 14)) [SEQ ID NO: 136]
pEC50 hGLPR1 [1]: 10.9 -log M | pEC50 hSCTR [2]: 7.9 -log M

B9: SEQ ID NO: 142 (peptide)
peptide: HGEGTFTSDVSYLKEEA[Aib]LQRFLEHLV-NH2
modifications: not fully specified (residue 14); also: K14 lipidated with C20DA[γE][OEG][OEG]- or C18DA[γE][OEG][OEG]-
pEC50 hGLPR1 [1]: 10.9 -log M | pEC50 hSCTR [2]: 4.7 -log M

B10: SEQ ID NO: 144 (peptide)
peptide: H[Aib]EGTFTSDVSYLKEEA[Aib]LQRFLEYLV-NH2
modifications: not fully specified (residue 14); also: K14 lipidated with C20DA[γE][OEG][OEG]- or C18DA[γE][OEG][OEG]-
pEC50 hGLPR1 [1]: 10.8 -log M | pEC50 hSCTR [2]: 6.6 -log M
